Values quoted from earlier work in PMC11924945.

Target: CD47 (Homo sapiens) (UniProt Q08722)
Sequence (Q08722 19-323): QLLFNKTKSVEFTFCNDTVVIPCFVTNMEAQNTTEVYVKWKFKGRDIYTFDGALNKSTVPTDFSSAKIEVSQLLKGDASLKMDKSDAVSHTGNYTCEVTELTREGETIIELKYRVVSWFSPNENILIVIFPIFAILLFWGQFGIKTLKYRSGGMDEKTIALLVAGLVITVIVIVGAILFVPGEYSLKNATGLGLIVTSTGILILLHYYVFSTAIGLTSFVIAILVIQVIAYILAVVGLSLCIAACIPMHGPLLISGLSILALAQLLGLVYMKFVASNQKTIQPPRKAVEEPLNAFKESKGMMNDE

Sequence of SIRPα allele 2 (P78324 31-373): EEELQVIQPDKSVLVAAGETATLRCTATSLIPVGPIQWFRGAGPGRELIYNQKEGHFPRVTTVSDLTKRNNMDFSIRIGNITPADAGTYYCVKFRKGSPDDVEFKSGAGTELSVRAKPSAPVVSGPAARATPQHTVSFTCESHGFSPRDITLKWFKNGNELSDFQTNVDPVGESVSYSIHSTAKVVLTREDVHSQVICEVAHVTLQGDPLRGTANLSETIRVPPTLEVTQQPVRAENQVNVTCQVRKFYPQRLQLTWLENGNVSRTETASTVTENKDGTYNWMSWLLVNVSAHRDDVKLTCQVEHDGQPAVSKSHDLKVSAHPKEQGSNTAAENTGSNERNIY

For SIRPα allele 2 (from UniProt P78324), the Kd is listed as 1000 nM.
